Source: publication PMC7935953, “Insights on autophagosome–lysosome tethering from structural and biochemical characterization of human autophagy factor EPG5” (Communications Biology, 2021)

Tests used:
Experiment in all cases: pull-down; GST pull-down: purified GST-LC3A/B/C or GST-GABARAP/L1/L2 bait (200–240 µg) on glutathione resin, purified His-FLAG-hEPG5 or mutant (25–30 µg) as prey; 50 mM Tris pH 8.0, 150 mM NaCl, 5% glycerol, 0.01% Tween20, 0.5 mM DTT, 4 °C; anti-FLAG fluorescence western blot
[1] = biological target: GST-GABARAP (human) (UniProt O95166)
[2] = biological target: GST-GABARAPL1 (human) (UniProt Q9H0R8)
[3] = biological target: GST-GABARAPL2 (human) (UniProt P60520)

Measured: fold more hEPG5 precipitated than by the LC3 subfamily

Chain of GST-GABARAPL2 (human) (P60520 whole entry): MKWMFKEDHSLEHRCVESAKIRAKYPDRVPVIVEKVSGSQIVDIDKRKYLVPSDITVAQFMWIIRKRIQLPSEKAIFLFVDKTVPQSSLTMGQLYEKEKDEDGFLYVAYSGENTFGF
Chain of GST-GABARAPL1 (human) (Q9H0R8 whole entry): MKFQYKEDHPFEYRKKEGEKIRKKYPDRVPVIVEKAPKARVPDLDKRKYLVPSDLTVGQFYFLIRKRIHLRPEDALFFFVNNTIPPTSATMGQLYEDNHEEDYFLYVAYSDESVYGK
Chain of GST-GABARAP (human) (O95166 whole entry): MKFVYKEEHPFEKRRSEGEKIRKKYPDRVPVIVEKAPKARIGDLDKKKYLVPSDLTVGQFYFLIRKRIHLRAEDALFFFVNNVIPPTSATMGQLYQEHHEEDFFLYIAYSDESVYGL

His-FLAG-hEPG5 (human EPG5, full length, wild type), Q9HCE0 1-2579
2.5 times: all assays above
